According to PMC1636435 (Nucleic Acids Research, 2006):
Values belong to the molecule of their own block, whether it stands above or below them.

B1: human RAD51 (Gal4 two-hybrid fusion) (natural protein)
chain: MAMQMQLEANADTSVEEESFGPQPISRLEQCGINANDVKKLEEAGFHTVEAVAYAPKKELINIKGISEAKADKILAEAAKLVPMGFTTATEFHQRRSEIIQITTGSKELDKLLQGGIETGSITEMFGEFRTGKTQICHTLAVTCQLPIDRGGGEGKAMYIDTEGTFRPERLLAVAERYGLSGSDVLDNVAYARAFNTDHQTQLLYQASAMMVESRYALLIVDSATALYRTDYSGRGELSARQMHLARFLRMLLRLADEFGVAVVITNQVVAQVDGAAMFAADPKKPIGGNIIAHASTTRLYLRKGRGETRICKIYDSPCLPEAEAMFAINADGVGDAKD
B2: RAD51AP1-C89 (C-terminal 89 amino acids of human RAD51AP1) (domain or fragment)
chain: APAAVKSESQSLPKKVSLSSDTTRKPLEIRSPSAESKKPKWVPPAASGGSRSSSSPLVVVSVKSPNQSLRLGLSRLARVKPLHPNATST
B3: human RAD51AP1 (Gal4 two-hybrid fusion, all of RAD51AP1) (natural protein)
chain: MVRPVRHKKPVNYSQFDHSDSDDDFVSATVPLNKKSRTAPKELKQDKPKPNLNNLRKEEIPVQEKTPKKRMALDDKLYQRDLEVALALSVKELPTVTTNVQNSQDKSIEKHGSSKIETMNKSPHISNCSVASDYLDLDKITVEDDVGGVQGKRKAASKAAAQQRKILLEGSDGDSANDTEPDFAPGEDSEDDSDFCESEDNDEDFSMRKSKVKEIKKKEVKVKSPVEKKEKKSKSKCNALVTSVDSAPAAVKSESQSLPKKVSLSSDTTRKPLEIRSPSAESKKPKWVPPAASGGSRSSSSPLVVVSVKSPNQSLRLGLSRLARVKPLHPNATST

Columns and labels:
Experiment in all cases: two-hybrid
[1] = target: human RAD51 (Gal4 two-hybrid fusion) (human) (UniProt Q06609)
[2] = target: Saccharomyces cerevisiae RAD51 (Gal4 two-hybrid fusion) (Saccharomyces cerevisiae) (UniProt P25454)
Chain of Saccharomyces cerevisiae RAD51 (Gal4 two-hybrid fusion) (Saccharomyces cerevisiae) (P25454 whole entry, the tested form may be a part): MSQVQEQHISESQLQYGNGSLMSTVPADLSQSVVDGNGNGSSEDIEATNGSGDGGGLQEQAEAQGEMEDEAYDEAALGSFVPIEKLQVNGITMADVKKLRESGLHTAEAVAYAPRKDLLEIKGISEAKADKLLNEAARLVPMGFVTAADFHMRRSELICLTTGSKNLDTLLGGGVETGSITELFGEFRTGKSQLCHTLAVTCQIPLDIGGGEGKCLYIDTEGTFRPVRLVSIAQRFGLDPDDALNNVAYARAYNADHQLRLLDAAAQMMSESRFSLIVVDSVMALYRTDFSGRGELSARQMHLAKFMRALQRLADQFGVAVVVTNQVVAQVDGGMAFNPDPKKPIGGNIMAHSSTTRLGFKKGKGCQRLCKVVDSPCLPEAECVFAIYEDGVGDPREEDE

[3] = target: human DMC1 (Gal4 two-hybrid fusion) (human) (UniProt Q14565)
Chain of human DMC1 (Gal4 two-hybrid fusion) (human) (Q14565 whole entry, the tested form may be a part): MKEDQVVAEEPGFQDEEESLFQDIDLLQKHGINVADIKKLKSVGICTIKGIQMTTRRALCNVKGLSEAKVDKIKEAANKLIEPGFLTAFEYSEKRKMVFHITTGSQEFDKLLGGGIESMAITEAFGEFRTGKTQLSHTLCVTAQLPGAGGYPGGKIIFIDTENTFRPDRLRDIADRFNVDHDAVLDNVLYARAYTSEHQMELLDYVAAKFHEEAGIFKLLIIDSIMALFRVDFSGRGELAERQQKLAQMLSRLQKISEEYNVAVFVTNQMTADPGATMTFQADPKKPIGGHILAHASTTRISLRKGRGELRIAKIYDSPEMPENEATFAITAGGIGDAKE

[4] = target: human RAD51AP1 (Gal4 two-hybrid fusion, all of RAD51AP1) (human) (UniProt Q96B01)
[5] = target: RAD51AP2-C33 (C-terminal 33 amino acids of human RAD51AP2) (human) (UniProt Q09MP3)
Chain of RAD51AP2-C33 (C-terminal 33 amino acids of human RAD51AP2) (human) (Q09MP3 whole entry): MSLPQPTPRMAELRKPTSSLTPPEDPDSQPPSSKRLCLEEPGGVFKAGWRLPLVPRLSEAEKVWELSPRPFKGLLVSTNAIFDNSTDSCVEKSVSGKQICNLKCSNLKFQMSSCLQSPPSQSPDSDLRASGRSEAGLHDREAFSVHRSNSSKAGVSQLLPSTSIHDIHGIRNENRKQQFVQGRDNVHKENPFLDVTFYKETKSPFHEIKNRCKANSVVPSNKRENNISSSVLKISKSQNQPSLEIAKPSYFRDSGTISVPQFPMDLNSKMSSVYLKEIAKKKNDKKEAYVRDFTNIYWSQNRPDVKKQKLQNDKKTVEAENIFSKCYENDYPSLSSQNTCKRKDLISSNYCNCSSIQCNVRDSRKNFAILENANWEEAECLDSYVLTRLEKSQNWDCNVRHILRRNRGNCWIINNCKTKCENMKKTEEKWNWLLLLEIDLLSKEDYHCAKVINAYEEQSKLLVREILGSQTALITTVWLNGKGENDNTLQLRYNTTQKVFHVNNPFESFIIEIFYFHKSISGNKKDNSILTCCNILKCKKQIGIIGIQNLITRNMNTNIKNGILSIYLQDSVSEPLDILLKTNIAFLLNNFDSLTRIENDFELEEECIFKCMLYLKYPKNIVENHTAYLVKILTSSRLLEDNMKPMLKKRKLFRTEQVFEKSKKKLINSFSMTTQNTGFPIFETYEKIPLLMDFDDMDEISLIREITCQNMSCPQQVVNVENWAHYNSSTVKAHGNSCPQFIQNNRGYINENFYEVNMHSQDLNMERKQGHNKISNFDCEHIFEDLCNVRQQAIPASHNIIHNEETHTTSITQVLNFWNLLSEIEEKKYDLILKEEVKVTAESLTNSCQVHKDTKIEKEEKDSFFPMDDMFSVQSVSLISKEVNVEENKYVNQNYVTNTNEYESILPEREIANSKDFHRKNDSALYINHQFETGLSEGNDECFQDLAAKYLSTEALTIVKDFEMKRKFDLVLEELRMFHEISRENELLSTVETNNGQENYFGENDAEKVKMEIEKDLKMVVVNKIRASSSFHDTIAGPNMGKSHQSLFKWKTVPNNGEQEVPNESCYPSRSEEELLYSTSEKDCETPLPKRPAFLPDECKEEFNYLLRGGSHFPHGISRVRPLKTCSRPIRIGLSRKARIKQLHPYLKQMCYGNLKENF

[6] = target: RAD51AP2-C92 (last 92 amino acids of human RAD51AP2) (human) (UniProt Q09MP3)
Chain of RAD51AP2-C92 (last 92 amino acids of human RAD51AP2) (human) (Q09MP3 1068-1159): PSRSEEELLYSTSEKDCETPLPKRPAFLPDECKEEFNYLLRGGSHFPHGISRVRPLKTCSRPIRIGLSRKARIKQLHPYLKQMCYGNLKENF

[7] = target: Two larger fragments, each containing RAD54 79-118
[8] = target: T1, RAD51AP1-C25 (C-terminal 25 residues of human RAD51AP1) (human, UniProt Q96B01-2 311-335)
T1 chain: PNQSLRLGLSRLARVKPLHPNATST

[9] = target: B3
[10] = target: B2
[11] = target: B1

units of β-galactosidase (units of β-galactosidase) [1]: 143
Molecule: RAD51AP2-C92 (last 92 amino acids of human RAD51AP2) (from UniProt Q09MP3 1068-1159) (domain or fragment)

units of β-galactosidase (units of β-galactosidase) [2]: < 0.3
units of β-galactosidase (units of β-galactosidase) [3]: < 0.3
units of β-galactosidase (units of β-galactosidase) [1]: 301
units of β-galactosidase (units of β-galactosidase) [4]: < 0.3
Molecule: RAD51AP2-C321 (C-terminal 321 amino acids of human RAD51AP2) (from UniProt Q09MP3 839-1159) (domain or fragment)

units of β-galactosidase (units of β-galactosidase) [5]: 395
units of β-galactosidase (units of β-galactosidase) [6]: 521
percent of the interaction of RAD54-N142 with RAD51 [7]: > 70%
Molecule: human RAD51 (Gal4 two-hybrid fusion) (from UniProt Q06609 1-339) (natural protein)

Molecule: B1
units of β-galactosidase [8]: 473 units of β-galactosidase
units of β-galactosidase [9]: 590 units of β-galactosidase
units of β-galactosidase [10]: 420 units of β-galactosidase

Molecule: B2
units of β-galactosidase [11]: 24.6 units of β-galactosidase

Molecule: B3
units of β-galactosidase [11]: 111 units of β-galactosidase
